Laboratory results as given in publication PMC12080732 (mAbs, 2025).

Target: active trimeric human TNFα (human, UniProt P01375 77-233)
Test: SPR

active trimeric human TNFα, sequence (P01375 77-233): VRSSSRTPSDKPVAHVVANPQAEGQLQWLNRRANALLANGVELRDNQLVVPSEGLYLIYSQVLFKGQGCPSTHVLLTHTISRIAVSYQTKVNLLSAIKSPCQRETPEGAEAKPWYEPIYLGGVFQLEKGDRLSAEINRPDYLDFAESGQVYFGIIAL

Kd [nM] | koff [s⁻¹] | Binder
0.077 | 2.87e-05 | TNFI-Nb2 (VHH) VHH: QVQLVESGGGLVQPGGSLRLSCAASGFAFNDHWMYWVRQAPGKELEWVSEINTNGLITKYADFVKGRFTVSRDNAKNTLYLQMNSLEPEDTAVYSCSRNQIGTLRGQGTQVTVSS
0.219 | – | TNFI-Nb1 (VHH) VHH: EVQLVESGGGLVQPGGSLRLSCAASGFAFNDHWMYWVRQAPGKELEWVSEINTNGLITKYADFVKGRFTVSRDNAKNTLYLQMDSLRPEDTAVYSCSRNQIGTLRGQGTQVTVSS
0.392 | – | TNFI-Nb3 (VHH) VHH: QVQLVESGGGLVQPGGSLRLSCAASGFAFNDHWMYWVRQAPGKELEWVSEINTNGLITKYADFVKGRFTVSRDNAENTLYLQMNSLEPEDTAVYSCSRNQIGTLRGQGTQVTVSS
